Molecular target: T1, Yersinia pestis F1 antigen, cell-expressed (on Y. pestis cells) (Yersinia pestis, UniProt P26948 22-170)
T1 construct: whole, on cells; also called cell-expressed F1 antigen; F1-positive Y. pestis
Test: affinity for cell-expressed F1 antigen (method not given)

T1 sequence (P26948 22-170): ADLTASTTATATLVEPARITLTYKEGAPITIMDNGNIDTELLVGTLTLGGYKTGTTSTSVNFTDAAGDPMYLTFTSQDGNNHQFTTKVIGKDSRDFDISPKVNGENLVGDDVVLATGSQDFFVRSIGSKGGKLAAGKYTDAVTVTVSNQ

Binder	Kd [pM]
AM IgG H (antibody, V domains shown, also called AM^a IgG H) VH: QVQLQQWGAGLLKPSETLSLTCAVYGGSFSGYYWSWIRQPPGKGLEWIGEINRSGNTNYNPSLKSRVTISVDTSKNQFSLQLNSVTPEDTAVYYCARTRGYFDLWGRGTLVTVSS VL: QPVLTQSPSVSVSPGQTASITCSGDKLGGRYASWYQQKPGQSPVLVIYQDTKRPSGIPERFSGSNSGNTATLTISGTQAMDEADYYCQSWDSSAAVFGTGTKLTVLG	30
AM IgG B (antibody, V domains shown, also called AM^a IgG B) VH: QVQLVESGGGLVKPGGSLRLSCAASGFTFSDYYMSWIRQAPGKGLEWVSYISGSGSIIYYADSVKGRFTISRDNAKNSLYLQMNSLRAEDTAVYYCAKEIRKHDAFDIWGQGTMVTVSS VL: DIRMTQSPSSLSASVGDRVTITCRASRSISGYLNWYQQKPGKAPKLLIYATSSLQSGVPSRFSGSGSGTDFTLTISSLQPEDFATYYCQQSYSTPSSFGQGTKVDIKR	90
